{
  "source": "patent US20030166162",
  "proteins": {"B1": {"name": "calf chymosin (protein)", "chain": "GEVASVPLTNYLDSQYFGKIYLGTPPQEFTVLFDTGSSDFWVPSIYCKSNACKNHQRFDPRKSSTFQNLGKPLSIHYGTGSMQGILGYDTVTVSNIVDIQQTVGLSTQEPGDVFTYAEFDGILGMAYPSLASEYSIPVFDNMMNRHLVAQDLFSVYMDRNGQESMLTLGAIDPSYYTGSLHWVPVTVQQYWQFTVDSVTISGVVVACEGGCQAILDTGTSKLVGPSSDILNIQQAIGATQNQYGEFDIDCDNLSYMPTVVFEINGKMYPLTPSAYTSQDQGFCTSGFQSENHSQKWILGDVFIREYYSVFDRANNLVGLAKAI"}},
  "key": {"[1]": {"target": "glutathione S transferase KLIP 4 chymosin pro-peptide cystatin fusion protein"}, "[2]": {"target": "glutathione S transferase KLIP 16 chymosin pro-peptide cystatin fusion protein"}, "[3]": {"target": "glutathione S transferase KLIP 11 chymosin pro-peptide cystatin fusion protein"}, "[4]": {"target": "T1, GST-wild type calf chymosin pro-peptide-cystatin fusion protein, P09229", "T1 chain": "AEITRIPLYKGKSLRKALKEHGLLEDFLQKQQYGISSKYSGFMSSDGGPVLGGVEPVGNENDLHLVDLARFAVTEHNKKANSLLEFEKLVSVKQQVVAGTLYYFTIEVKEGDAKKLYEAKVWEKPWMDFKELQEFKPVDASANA"}, "[5]": {"target": "glutathione S transferase KLIP 12 chymosin pro-peptide cystatin fusion protein"}, "[6]": {"target": "glutathione S transferase KLIP 15 chymosin pro-peptide cystatin fusion protein"}, "[7]": {"target": "glutathione S transferase KLIP 14 chymosin pro-peptide cystatin fusion protein"}},
  "data": [
    {"protein": "B1", "values": [
      {"measurement": "% Cystatin accumulation following reaction, 0.5 hr @ 37 C", "setting": "[1]", "result": 100, "unit": "%"},
      {"measurement": "% Cystatin accumulation following reaction, 1.0 hr @ 37 C", "setting": "[1]", "result": 100, "unit": "%"},
      {"measurement": "% Cystatin accumulation following reaction, 2.0 hr @ 37 C", "setting": "[1]", "result": 100, "unit": "%"},
      {"measurement": "% Cystatin accumulation following reaction, 16 hr @ RT", "setting": "[1]", "result": 87, "unit": "%"},
      {"measurement": "% Cystatin accumulation following reaction, T = 0", "setting": "[1]", "result": 0, "unit": "%"},
      {"measurement": "% Cystatin accumulation following reaction, 0.5 hr @ 37 C", "setting": "[2]", "result": 0, "unit": "%"},
      {"measurement": "% Cystatin accumulation following reaction, 1.0 hr @ 37 C", "setting": "[2]", "result": 0, "unit": "%"},
      {"measurement": "% Cystatin accumulation following reaction, 2.0 hr @ 37 C", "setting": "[2]", "result": 0, "unit": "%"},
      {"measurement": "% Cystatin accumulation following reaction, 16 hr @ RT", "setting": "[2]", "result": 0, "unit": "%"},
      {"measurement": "% Cystatin accumulation following reaction, T = 0", "setting": "[2]", "result": 0, "unit": "%"},
      {"measurement": "Scissile bond (N-terminal sequence)", "setting": "[2]", "result": "Uncleavable"},
      {"measurement": "% Cystatin accumulation following reaction, 0.5 hr @ 37 C", "setting": "[3]", "result": 83, "unit": "%"},
      {"measurement": "% Cystatin accumulation following reaction, 1.0 hr @ 37 C", "setting": "[3]", "result": 80.5, "unit": "%"},
      {"measurement": "% Cystatin accumulation following reaction, 2.0 hr @ 37 C", "setting": "[3]", "result": 100, "unit": "%"},
      {"measurement": "% Cystatin accumulation following reaction, 16 hr @ RT", "setting": "[3]", "result": 67.8, "unit": "%"},
      {"measurement": "% Cystatin accumulation following reaction, T = 0", "setting": "[3]", "result": 0, "unit": "%"},
      {"measurement": "% Cystatin accumulation following reaction, 16 hr @ RT; product with N-terminus MSSDGG", "setting": "[4]", "result": 50, "unit": "%"},
      {"measurement": "% Cystatin accumulation following reaction, 16 hr @ RT; product with N-terminus SGFMSSDGG", "setting": "[4]", "result": 50, "unit": "%"},
      {"measurement": "% Cystatin accumulation following reaction, T = 0", "setting": "[4]", "result": 0, "unit": "%"},
      {"measurement": "% Cystatin accumulation following reaction, 0.5 hr @ 37 C", "setting": "[5]", "result": 84, "unit": "%"},
      {"measurement": "% Cystatin accumulation following reaction, 1.0 hr @ 37 C", "setting": "[5]", "result": 99.4, "unit": "%"},
      {"measurement": "% Cystatin accumulation following reaction, 2.0 hr @ 37 C", "setting": "[5]", "result": 87, "unit": "%"},
      {"measurement": "% Cystatin accumulation following reaction, 16 hr @ RT", "setting": "[5]", "result": 64, "unit": "%"},
      {"measurement": "% Cystatin accumulation following reaction, T = 0", "setting": "[5]", "result": 0, "unit": "%"},
      {"measurement": "% Cystatin accumulation following reaction, 0.5 hr @ 37 C", "setting": "[6]", "result": 40, "unit": "%"},
      {"measurement": "% Cystatin accumulation following reaction, 1.0 hr @ 37 C", "setting": "[6]", "result": 57.8, "unit": "%"},
      {"measurement": "% Cystatin accumulation following reaction, 2.0 hr @ 37 C", "setting": "[6]", "result": 77.8, "unit": "%"},
      {"measurement": "% Cystatin accumulation following reaction, 16 hr @ RT", "setting": "[6]", "result": 85, "unit": "%"},
      {"measurement": "% Cystatin accumulation following reaction, T = 0", "setting": "[6]", "result": 0, "unit": "%"},
      {"measurement": "% Cystatin accumulation following reaction, 0.5 hr @ 37 C", "setting": "[7]", "result": 72, "unit": "%"},
      {"measurement": "% Cystatin accumulation following reaction, 1.0 hr @ 37 C", "setting": "[7]", "result": 87, "unit": "%"},
      {"measurement": "% Cystatin accumulation following reaction, 2.0 hr @ 37 C", "setting": "[7]", "result": 99, "unit": "%"},
      {"measurement": "% Cystatin accumulation following reaction, 16 hr @ RT", "setting": "[7]", "result": 70, "unit": "%"},
      {"measurement": "% Cystatin accumulation following reaction, T = 0", "setting": "[7]", "result": 0, "unit": "%"}
    ]}
  ]
}
